Reference: patent CN110357963A (BEIJING ZHIREN MEIBO BIOTECHNOLOGY CO LTD, dated 2019)
Where a chain is given by its changes, count along the chain named.

Tests used:
小鼠ST2 (mST2-his) [1] = molecular target: T1, 小鼠ST2 (mST2-his) (mouse (mus musculus), UniProt P14719 27-332); assay: ELISA, mST2-his coated 1 µg/mL, HRP anti-human IgG
T1 construct: not shown: His tag at C-terminus
T1 sequence: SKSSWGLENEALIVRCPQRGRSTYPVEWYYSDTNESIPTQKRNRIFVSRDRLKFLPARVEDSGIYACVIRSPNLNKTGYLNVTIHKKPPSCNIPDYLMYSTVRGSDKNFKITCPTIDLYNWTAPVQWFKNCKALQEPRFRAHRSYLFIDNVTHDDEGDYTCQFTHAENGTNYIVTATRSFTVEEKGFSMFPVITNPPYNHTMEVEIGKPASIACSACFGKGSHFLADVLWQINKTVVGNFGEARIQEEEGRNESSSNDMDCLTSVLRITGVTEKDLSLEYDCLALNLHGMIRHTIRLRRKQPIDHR

[2] = molecular target: T2, 重组人ST2-his (人ST2胞外区, C端His标签) (human (homo sapiens), UniProt Q01638 19-328); assay: SPR Biacore X100 as in Example 3.4, antibody captured, hST2-his analyte
T2 construct: Expressed in HEK293 cells; also called hST2-his; hST2-His; not shown: His tag at C-terminus
T2 sequence: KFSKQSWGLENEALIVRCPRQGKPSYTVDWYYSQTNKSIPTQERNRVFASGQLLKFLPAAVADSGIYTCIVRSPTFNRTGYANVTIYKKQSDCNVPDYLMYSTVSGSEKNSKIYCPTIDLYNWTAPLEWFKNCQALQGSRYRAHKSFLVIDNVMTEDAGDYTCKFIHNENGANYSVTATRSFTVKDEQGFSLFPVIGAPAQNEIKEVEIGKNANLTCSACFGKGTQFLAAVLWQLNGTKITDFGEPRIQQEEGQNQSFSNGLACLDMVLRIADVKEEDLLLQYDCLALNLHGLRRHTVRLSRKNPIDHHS

猕猴ST2 (mmST2-his) = molecular target: T3, 猕猴ST2 (mmST2-his) (rhesus macaque (Macaca mulatta), UniProt Q01638 19-328 (human entry)); assay: ELISA, mmST2-his coated 1 µg/mL, HRP anti-human IgG
T3 construct: not shown: His tag at C-terminus
T3 chain: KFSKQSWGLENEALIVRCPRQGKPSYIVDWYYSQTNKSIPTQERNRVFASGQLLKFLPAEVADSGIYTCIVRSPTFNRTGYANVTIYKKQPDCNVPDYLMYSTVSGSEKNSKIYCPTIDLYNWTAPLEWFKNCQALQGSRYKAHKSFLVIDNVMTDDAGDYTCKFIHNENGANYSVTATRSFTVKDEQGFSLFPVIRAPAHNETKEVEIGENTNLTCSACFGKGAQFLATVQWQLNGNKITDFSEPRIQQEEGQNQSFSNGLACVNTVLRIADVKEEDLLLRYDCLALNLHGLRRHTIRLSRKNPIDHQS

ST2L (IL1RL1) on cells = molecular target: T4, ST2L (IL1RL1) on cells (human, UniProt Q01638 19-556); assay: cell-based or functional assay
T4 sequence (looked up): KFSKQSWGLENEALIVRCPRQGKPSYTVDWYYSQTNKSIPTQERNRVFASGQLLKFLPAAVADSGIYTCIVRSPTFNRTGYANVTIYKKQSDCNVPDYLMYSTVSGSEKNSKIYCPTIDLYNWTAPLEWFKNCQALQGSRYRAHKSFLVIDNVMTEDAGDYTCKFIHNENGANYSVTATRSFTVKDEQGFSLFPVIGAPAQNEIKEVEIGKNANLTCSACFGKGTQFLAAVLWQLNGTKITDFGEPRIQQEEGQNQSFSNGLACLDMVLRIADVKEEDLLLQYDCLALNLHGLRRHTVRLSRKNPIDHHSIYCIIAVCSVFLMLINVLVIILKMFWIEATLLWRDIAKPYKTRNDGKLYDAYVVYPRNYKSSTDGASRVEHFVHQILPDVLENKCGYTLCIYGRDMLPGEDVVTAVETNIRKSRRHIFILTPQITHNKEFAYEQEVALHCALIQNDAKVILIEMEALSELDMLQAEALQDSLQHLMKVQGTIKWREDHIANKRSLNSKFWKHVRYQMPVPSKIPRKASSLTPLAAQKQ

[3] = molecular target: T2, 重组人ST2-his (人ST2胞外区, C端His标签); assay: SPR Biacore X100 as in Example 3.4, antibody captured, hST2-his analyte; remark: listed apart in the source
小鼠ST2 (mST2-his) [4] = molecular target: T1, 小鼠ST2 (mST2-his); assay: ELISA, mST2-his coated at 1 µg/mL, HRP anti-human IgG detection
[5] = molecular target: T2, 重组人ST2-his (人ST2胞外区, C端His标签); assay: SPR Biacore X100, antibody captured by anti-human Fc, hST2-his analyte, 25 °C, 1:1 model
[6] = molecular target: T2, 重组人ST2-his (人ST2胞外区, C端His标签); assay: competition ELISA, hST2-his coated, competitor hIL33-mFc 0.5 µg/mL, antibody titrated
[7] = molecular target: T2, 重组人ST2-his (人ST2胞外区, C端His标签); assay: phage display solid-phase panning on recombinant human ST2-his

B1: H6D6+L2G2 (antibody, IgG4, V domains shown)
VH: QMQLVQSGAEVKKPGSSVKVSCKASGGTFSSYAISWVRQAPGKGLEWMGGFDPEDGETIYAQKFQGRVTMTEDTSTDTAYMELSSLRSEDTAVYYCTTEDSSGLLDFWGQGTLVTVSS
VL: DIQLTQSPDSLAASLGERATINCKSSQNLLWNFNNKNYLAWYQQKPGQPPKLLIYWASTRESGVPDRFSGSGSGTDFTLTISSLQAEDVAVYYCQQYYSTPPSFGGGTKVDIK
notes: Full antibody, IgG4 heavy constant region
- binding result (小鼠ST2 (mST2-his) [1]): binds
- Kd [2]: 0.695 nM
- binding result (猕猴ST2 (mmST2-his)): binds

B2: H5G3+L2G2 (antibody, IgG4, V domains shown)
VH: QVQLVQSGAEVKKPGASVKVSCKVFGYTLTELSMHWVRQAPGKGLEWMGSFDRGDGKTIYAQKFLGRVTMTEDTSTDTAYMELSSLRSEDTAVYYCTNEDSSGLFDFWGQGTLVTVSS
VL: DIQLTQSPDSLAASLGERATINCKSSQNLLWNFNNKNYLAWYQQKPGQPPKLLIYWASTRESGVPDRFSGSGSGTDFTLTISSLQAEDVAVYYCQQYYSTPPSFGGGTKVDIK
notes: as for B1
- binding result (小鼠ST2 (mST2-his) [1]): binds
- Kd [2]: 0.115 nM
- binding result (猕猴ST2 (mmST2-his)): binds

B3: H5E10+L2G2 (antibody, IgG4, V domains shown)
VH: EVQLVQSGAEVKKPGASVKVSCKVSGYTLTELSIHWVRQAPGKGLEWMGGFDPEDGETIYAQKFQGRITLTEDTSTDTAYMELSSLRSEDTAVYYCTNEDSSGLFDYWGQGTLVTVSS
VL: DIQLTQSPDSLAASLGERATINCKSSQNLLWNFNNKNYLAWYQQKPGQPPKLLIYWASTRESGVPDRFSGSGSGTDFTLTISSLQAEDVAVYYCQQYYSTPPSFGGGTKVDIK
notes: as for B1
- binding result (小鼠ST2 (mST2-his) [1]): binds
- Kd [2]: 0.709 nM
- binding result (猕猴ST2 (mmST2-his)): binds

B4: H5G3+L1D1 (antibody, IgG4, V domains shown)
VH: B2 VH
VL: DIQLTQSPDSLAVSLGERATINCKSSQSLLYSFNNKNYLAWYQQKPGQPPNLLIYWASTRESGVPDRFSASGSGTDFTLTISSLQAEDVAVYYCQQYYGVPQTFGQGTKVEIK
notes: IgG4 heavy constant region
- binding result (小鼠ST2 (mST2-his) [1]): binds
- binding result (猕猴ST2 (mmST2-his)): binds
- IC50 of inhibition of IFNγ secretion by PBMC co-stimulated with IL-33 and IL-12 (ST2L (IL1RL1) on cells): 0.038 nM

B5: S1A4VH+L2G2 (antibody, V domains shown)
VH: B3 VH with E1Q, D52G, I68V, L70M, T97I, S102G, Y107F, L113T
VL: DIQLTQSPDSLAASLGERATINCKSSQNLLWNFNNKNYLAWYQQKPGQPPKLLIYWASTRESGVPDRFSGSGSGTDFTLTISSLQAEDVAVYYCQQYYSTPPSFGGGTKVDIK
notes: Full antibody, heavy chain constant region IgG4 subtype
- Kd [3]: 0.0794 nM

B6: H5G10+L2G2 (antibody, IgG4, V domains shown)
VH: B3 VH with D52G, T58A, F64V, I68V, T69I, T71S, S75A, S102G
VL: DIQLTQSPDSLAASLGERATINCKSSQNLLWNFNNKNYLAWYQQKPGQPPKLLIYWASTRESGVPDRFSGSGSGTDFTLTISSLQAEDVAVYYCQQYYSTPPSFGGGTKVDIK
notes: as for B1
- Kd [2]: 0.0852 nM
- binding result (小鼠ST2 (mST2-his) [4]): no binding
- IC50 of inhibition of IFNγ secretion by PBMC co-stimulated with IL-33 and IL-12 (ST2L (IL1RL1) on cells): 0.0175 nM

B7: S1A4VH+L1D1 (antibody, V domains shown)
VH: B3 VH with E1Q, D52G, I68V, L70M, T97I, S102G, Y107F, L113T
VL: B4 VL
notes: as for B5
- Kd [3]: 0.152 nM

B8: S1A4-IgG4 (antibody, V domains shown)
VH: B3 VH with E1Q, D52G, I68V, L70M, T97I, S102G, Y107F, L113T
VL: not shown
notes: Full antibody; also called 抗人ST2单克隆抗体S1A4
- Kd [5]: 0.135 nM
- binding result (小鼠ST2 (mST2-his) [1]): binds
- Kd [2]: 0.139 nM
- Kd [3]: 0.111 nM
- binding result (猕猴ST2 (mmST2-his)): binds
- IC50 [6]: 4.15 nM

B9: MSTT1041A-IgG4 (antibody, V domains shown)
VH: EVQLVQSGAEVKKPGESLKISCKGSGYSFTNYWIGWVRQMPGKGLEWMGIIYPGNSDTRFSPSFQGQVTISADKSITTAYLQWSSLKASDTAMYYCARHGTSSDYYGLDVWGQGTTVTVSS
VL: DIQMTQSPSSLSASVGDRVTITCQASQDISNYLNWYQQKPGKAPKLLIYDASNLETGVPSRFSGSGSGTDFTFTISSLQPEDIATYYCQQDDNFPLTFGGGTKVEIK
notes: Positive control antibody made after US9382318B2/US9090694B2; also called 抗人ST2对照抗体MSTT1041A
- Kd [5]: 0.24 nM
- IC50 of inhibition of IFNγ secretion by PBMC co-stimulated with IL-33 and IL-12 (ST2L (IL1RL1) on cells): 0.037 nM
- IC50 [6]: 3.79 nM

B10: GSK3772847-IgG4 (antibody, V domains shown)
VH: EVQLLESGGGLVQPGGSLRLSCAASGFTFSIYDMIWVRQAPGKGLEWVSSIRGEGGGTYYADSVKGRFTISRDNSKNTLYLQMNSLRAEDTAVYYCARDPWSTEGSFFVLDYWGQGTLVTVSS
VL: EIVLTQSPATLSLSPGERATLSCRASQSVDDDLAWYQQKPGQAPRLLIYDASNRATGIPARFSGSGSGTDFTLTISSLEPEDFAVYYCQQYITAPLTFGQGTKVEIK
notes: Positive control antibody made after US9382318B2/US9090694B2; also called 抗人ST2对照抗体GSK3772847
- Kd [5]: 0.109 nM
- IC50 of inhibition of IFNγ secretion by PBMC co-stimulated with IL-33 and IL-12 (ST2L (IL1RL1) on cells): 0.0157 nM
- IC50 [6]: 5.52 nM

B11: 全人源单链抗体S1A4 (scFv)
scFv: QVQLVQSGAEVKKPGASVKVSCKVSGYTLTELSIHWVRQAPGKGLEWMGGFGPEDGETIYAQKFQGRVTMTEDTSTDTAYMELSSLRSEDTAVYYCINEDSGGLFDFWGQGTTVTVSSGGGGSGGGGSGGGGSDIQLTQSPDSLAVSLGERATINCKSSQSVLYSSNNKNYLAWYQQKPGQPPKLLIYWASTRESGVPDRFSGSGSGTDFTLTISSLQAEDVAVYYCQQYYSTPWTFGQGTKLEIK
notes: also called S1A4 scFv
- binding result [7]: binds

B12: H6D3+L2G2 (antibody, IgG4, V domains shown)
VH: QVQLVQSGAEVKKPGASVKVSCKVSGHTLTELSIHWVRQTPGKGLVWLGGFESEDGEAIYAQNFQGRVIMTEDTFTDTAYMELSSLRSEDTAVYYCTTEDSSGLIDYWGQGTLVTVSS
VL: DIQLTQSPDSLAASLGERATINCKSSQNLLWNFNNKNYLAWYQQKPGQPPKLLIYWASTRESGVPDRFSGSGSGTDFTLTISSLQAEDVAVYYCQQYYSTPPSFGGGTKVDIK
notes: as for B1
- binding result (小鼠ST2 (mST2-his) [1]): binds
- Kd [2]: 0.0373 nM
- binding result (猕猴ST2 (mmST2-his)): binds
